The nature of the data set: yeast display, Sf9 membrane polyspecificity reagent, FACS + sequencing; frameworks hold sequencing errors. Summed up: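 Galactose-induced (36–48 hours) yeast carrying a synthetic nanobody display library were exposed to 10% biotinylated, detergent-solubilized Sf9 membrane reagent at 4 °C for 1 hour. FACS followed streptavidin microbead enrichment, using low and high (top ~1%) gates for expression (anti-HA) and reagent binding (streptavidin). Colony PCR, MiSeq 2 × 250 sequencing and CDR-length filtering followed. Labels for polyreactivity reflect the gate of origin.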
Take “QVQLVESGGGLVQAGGSLRLSCAASGSIFQYYAMGWYRQAAGKERELVAAISGSGGRTYYADSVKGRFTISRDNAKNTVYLQMNSLKPEDTAVYYCNTVWWKQYNYWGQGTQVTVSS”: the “polyreactivity (PSR sort gate)” value was “high polyreactivity”.

In the case of “QVQLVESGGGLVQAGGSLRLSCAASGSTIQSNGMVWYRQAPGKERELVAAITSTDASTSYADSVKGRFTISRDNAKNTVYLQMNSLKPEDTAVYYCAADFPVASGAELDYWGLGTQVTVSS”, the “polyreactivity (PSR sort gate)” value was “low polyreactivity”.

On to “QVQLVESGGGLVQAGGSLRLSCAASGFTLYRYAMAWYRQAPGKERELVAAISWSGGSTYYADSVKGRFTISRDNAKNTVYLQMNSLKPEDTAVYYCAATGYVTRSKRYDYWGQGTQVTVSS”, for which the “polyreactivity (PSR sort gate)” value is listed as “high polyreactivity”.

For “QVQLVESGGGLVQAGGSLRLSCAASGFTLDRYAMGWYRQAPGKERELVAAITQSGVSTYYADSVKGRFTISRDNAKNTVYLQMNSLKPEDTAVYYCNALLRRTDYRYTWGYGYWGQGTQVTVSS”, the “polyreactivity (PSR sort gate)” value is “high polyreactivity”.

Regarding “QVQLVESGGGLVQAGGSLRLSCAASGSIFSSNTMGWYRQAPGKERELVAAITSGGGTYYADSVKGRFTISRDNAKNTVYLQMNSLKPEDTAVYYCAAQRDYKSSPSYDYWGQGTQVNVSS”, the “polyreactivity (PSR sort gate)” value is “low polyreactivity”.

For the sequence “QVQLVESGGGLVQAGGSLRLSCAASGFTIYRYAMGWYRQAPGKERELVAAITGGGGSTYYADSVKGRFTISRDNAKNTVYLQMNSLKPEVTAVYYCAVDVYHKGQYRWSYGYWGQGTQVTVSS”, the “polyreactivity (PSR sort gate)” value was “low polyreactivity”.

Regarding “QVQLVESGGGLVQAGGSLRLSCAASGSILRSYAMGWYRQAPWKERELVAVINGSGGRTYYADSVKGRFTISRDIAKNTVYLQMNSLKPEDTAVYYCNADPGGRYPRRGYAHEGDYWGQGTQVTVSS”, the “polyreactivity (PSR sort gate)” value is listed as “low polyreactivity”.

As to “QDQLVESGGGLGQAGGSLRLSCAASGSNFRPNAMGWYRQAPGKEMELVASITRNGGSTYYADSVKGRFTISRDNAKNTVYLQMNSLKPEDTAVYYCNAGYYYWGQGTQVTLSS”, the “polyreactivity (PSR sort gate)” value is listed as “high polyreactivity”.

Take “QVQLEESGGGLVQAGGSLRLSSAASGFIYVYAMGWYRQAPGKVRELVAAITATGDSTYYADSVKGRFTISRDNAKNTVYLQMNSLKPEDTAVYYCARNVNAQKVLGGFDSWGQGTQVNVSS”: the “polyreactivity (PSR sort gate)” value is “low polyreactivity”.

Consider “QVQRVESGGGLVQAGGSLRLSSADSGSTLSGYAMGWYRQAPGKERELVATIRITGGRTYYADSVKGRFTISRDNAKNTVYLQMNSLKPEDTAVYYCNVRSRRRVSSYDYWGQGTQVTVSS”, for which the “polyreactivity (PSR sort gate)” value was “high polyreactivity”.

As to “QVQLVESGGGLVQAGGSLRLSCAASGSTFESYDMGWYRQAPGKERELVAAIDWSGGITYYADSVKGRFTISRDNAKNTVYLQMNSLKPEDTAVYYCNAGPYWWYYGEDYWGQGTQVTVSS”, the “polyreactivity (PSR sort gate)” value is on record as “low polyreactivity”.

In the case of “QVQLVESGGGLVQAGGSLRLSCAASGSIFQVYAMGWYRQAPGKERELVAAISGGGSSTYYADSVKGRFTISRDNAKNTVYLQMNSLKPEDTAVYYCAAAYSWYDNNRYDYWGQGTQVTVSS”, the “polyreactivity (PSR sort gate)” value is listed as “low polyreactivity”.

In the case of “QVQLVESGGGLVQSGGSHPLSCAASGRTFYSYAMRGYRQAPGKDSEFVAAIRRCGSSTYYADSVKGRFTISRDNAKNTVYLQMNSLKPEDTAVYYCNAAPYIYPIRGNYWGQGTQETVSS”, the “polyreactivity (PSR sort gate)” value was “high polyreactivity”.

Take “QVQLVESGGGLVQAGGSLRLSCAASGRIFYLYAMGWYRQAPGKERELVATINSGGSTKYADSVKGRFTISRDNAKNTVYLQMNSLKPEDTAVYYCNAKRWKDYYPYQSWKYGYWGQGTQVTVSS”: the “polyreactivity (PSR sort gate)” value is given as “high polyreactivity”.

For “QVQLVESGGGLVQAGGSLRLSCAASGRTFIKNAMGWYRQAPGKERELVATISKRGGRTYYADSVKGRFTISRDNAKNTVYLQMNSLKPEDTAVYYCAARYRKSGLDKYWGQGTQVTVSS”, the “polyreactivity (PSR sort gate)” value is reported as “high polyreactivity”.

As to “QVQLVESGGGLVQAGGSLRLSCAASGSIFDYYAMGWYRQAPGKERELVAAIDNPDSTNYADSVKGRFTISRDNAKNTVYFQMNSLKPEDTAVYYCNADYWRYISSYDYWGQGTQVTVSS”, the “polyreactivity (PSR sort gate)” value is on record as “low polyreactivity”.

The values are drawn from the nanobody polyreactivity screen of Harvey et al. (2022).
